Results taken from the supplement of paper PMC10567573.
± gives the standard deviation.

Assay: protein stability index of a GFP-peptide fusion (GPS, HEK-293T) (PSI 1-6); higher = more stable
[1] = treatment: DMSO, c terminus: native
[2] = treatment: MLN4924 1 uM, 8 h, c terminus: native
[3] = treatment: DMSO, c terminus: a fixed tail appended
[4] = treatment: MLN4924 1 uM, 8 h, c terminus: a fixed tail appended
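Also: 24-mer peptide tiles fused after GFP, lentivirally expressed, FACS-sorted into six equal bins by GFP/DsRed ratio, decoded by Illumina sequencing, PSI is the read-weighted mean bin number.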

Sequence	protein stability index [1]	protein stability index [2]	protein stability index [3]	protein stability index [4]
DEIRWKYHSDTTPKIIESQRPPH [IQUB]	4.25 ± 0.36	4.09 ± 0.29	–	–
VESFKTKVSYLKQKGLGGAMVWAL [CHIT1]	–	–	2.54 ± 0.49	2.7 ± 0.56
LRSKLCSLYENDCIFDKFECVWNG [PPP2R2B]	–	–	2.5 ± 0.34	2.42 ± 0.39
VAPQDQCKLTCQAQALGYYYVLEP [ADAMTS4]	–	–	2.58 ± 0.22	2.4 ± 0.04
ICPICLEMFTKPVVILPCQHNLCR [TRIM55]	–	–	2.42 ± 0.17	2.96 ± 0.51
TSSLFRTEPMAWNETADLGLDIGA [CTNNB1]	–	–	3.71 ± 0.24	3.82 ± 0.59
SHHLAVYNSPQFKKTMSTFHNLVS [FBXO39]	–	–	2.25 ± 0.28	2.31 ± 0.1
HPANRSCRETGSFLDLFRYRVLLG [SLC22A15]	–	–	2.48 ± 0.44	2.15 ± 0.42
KDYNNLWIIKKHNTNSDPLDPSFP [POMT2]	–	–	3.15 ± 0.19	3.29 ± 0.26
PLRSSLPISLQATPATPATLSASS [TFE3]	–	–	4.47 ± 0.1	4.57 ± 0.14
AVQDHGQPPLSATVTLTVAVADSI [PCDHGA10]	–	–	2.83 ± 0.22	2.98 ± 0.34
LRKGFSCVKNELLPSHPLELSEKN [POMP]	–	–	3.61 ± 0.094	3.75 ± 0.24
ASHTVGFTPPTSLTRAGMSYYNSP [CCDC6]	–	–	2.82 ± 0.44	3.18 ± 0.21
SNSSQDSLHKGAKRKGIKSSIGRL [PPFIA4]	–	–	4.17 ± 0.22	4.22 ± 0.16
FVDILESDLKDDDAVPPGMESLIS [CDC25B]	–	–	3.55 ± 0.64	3.94 ± 0.43
LLDEIVPVYRRDCHEEVYAGSHQY [ACBD3]	–	–	3.03 ± 0.13	3.13 ± 0.26
LRQKGNRNTHKDLLRFAQVFSQMI [FEM1B]	–	–	2.38 ± 0.56	2.26 ± 0.32
VASVGNSRPTGQQLESLGLLAPGE [KISS1]	–	–	4.44 ± 0.17	4.52 ± 0.3
KSLLPHLKTGNSSPGIGAVYLANQ [RTP4]	–	–	2.71 ± 0.16	2.77 ± 0.2
CSGVACLVKDNPQRSYFLRIFDIK [WASL]	–	–	2.16 ± 0.34	2.27 ± 0.7
LWEKLAKQGELPREVRRAQARLLN [NOP53]	–	–	2.78 ± 0.12	2.82 ± 0.67
THFNTAQGFRTVLELVINYQQLCI [OAS1]	–	–	3.26 ± 0.87	2.76 ± 0.37
LNERKQASAIKKEELVARSETHAA [CHGB]	–	–	5.48 ± 0.22	5 ± 0.23

Sequence	protein stability index [1]	protein stability index [2]	protein stability index [3]	protein stability index [4]
RETNKSRGFAFVTFESPADAKDAA [RBMX]	–	–	4.34 ± 0.32	4.39 ± 0.38
QAKEELARMLREYQELMSLKLALD [KRT71]	–	–	2.61 ± 0.37	2.77 ± 0.47
WGDCSRTCGGGVQFSSRDCTRPVP [ADAMTS4]	–	–	2.9 ± 0.95	2.94 ± 0.26
IVQGSSGAQGSGGGSTSAHYAVNS [CARM1]	–	–	–	3.98 ± 0.91
IPLLSSVNVSDRGGRTALHHAALN [ANKRD44]	–	–	3.42 ± 0.38	3.16 ± 0.3
TCSECGKGFIQKGNLNIHQRTHTG [ZNF649]	–	–	3.24 ± 0.2	3.26 ± 0.25
LNQKTSEKMKKRKMSNSFHGIRPP [RHOBTB3]	–	–	3.95 ± 0.34	4.23 ± 0.11
TRVLAEMREQYEAMAERNRRDAEE [KRT13]	–	–	5.26 ± 0.2	5.18 ± 0.28
MTVVRMDASVQPGPFRTLLQFLYT [RHOBTB1]	–	–	2.41 ± 0.4	2.25 ± 0.4
GGLSPVTNLTVTMDQLQGLGSDYE [CDC25A]	–	–	4.24 ± 0.38	4.48 ± 0.18
EGMDRWIKKIEEHAPGVPKILVGN [RAB40A]	–	–	3.41 ± 0.18	3.21 ± 0.31
STPSDNIVRRFLNICENTEGAIAV [CDC14A]	–	–	3.66 ± 0.39	3.66 ± 0.14
CGQPCSQKSGLIRHQKIHSGEKPY [ZNF649]	–	–	3.02 ± 0.5	3.21 ± 0.28
LWTTSRVLKVLSVCSSNKPAIVEA [CTNNB1]	–	–	2.21 ± 0.3	2.08 ± 0.28
PHKERYFDRVDENNPEYLRERNMA [ADD1]	–	–	4.47 ± 0.36	4.69 ± 0.14
MGLYDGMEHLIYGEPRKLLTQDWV [MAGEA10]	–	–	2.25 ± 0.31	2.28 ± 0.51
LAMNYKHGDPIPKVEFTEEEIKTW [TPH1]	–	–	4.21 ± 0.33	4.35 ± 0.24
CTLPQLAIAWCLRNEGVSSVLLGA [KCNAB2]	–	–	3.1 ± 0.63	2.89 ± 0.36
AVFRFWAGGEKGPQAFPMSRLWDS [DNAAF3]	–	–	2.14 ± 0.26	2.18 ± 0.22
DAERDGVKVPTTLAEYCVKTKAPA [CDC34]	–	–	5.13 ± 0.067	5.02 ± 0.26
QAFCCENDINILRVSNPGRLAELL [GADD45A]	–	–	2.74 ± 0.36	2.82 ± 0.34
DDCSSTIVEDPQTKCEYMLNSMPK [ESRRG]	–	–	4.87 ± 0.29	4.95 ± 0.22
EHYWEVRYEPDSKAFGVGVAYRSL [FSD1]	–	–	2.06 ± 0.29	2.25 ± 0.33

Sequence	protein stability index [1]	protein stability index [2]	protein stability index [3]	protein stability index [4]
VAFLEQRASALLASCSKNCTNSPA [FBXO34]	–	–	2.9 ± 0.25	2.76 ± 0.28
YDKNIIHKTAGKRYVYRFVCDLQS [ETS1]	–	–	2.11 ± 0.17	2.14 ± 0.17
GRCELARVLHDFGLDGYRGYSLAD [SPACA3]	–	–	2.62 ± 0.13	2.35 ± 0.32
SGSGNRLDGKKKGVEPSPSPIKPG [UFD1]	–	–	4.61 ± 0.29	4.72 ± 0.079
FVELIGPKLREETAHMLGVRELRI [CABP4]	–	–	2.69 ± 0.88	2.14 ± 0.88
GYSWSMGAYKSSTICYCPEKGTWT [KLHL14]	–	–	2.03 ± 0.26	2.08 ± 0.34
RGAQGVILVYDIANRWSFEGMDRW [RAB40A]	–	–	2.57 ± 0.37	2.28 ± 0.28
SLDEFRQTWKLFSSHMNIDITDDC [PPEF2]	–	–	2.49 ± 0.3	2.75 ± 0.21
TYNLTEVDKYVNSFVLKNFPALLS [KLHL13]	–	–	2.08 ± 0.26	2.28 ± 0.23
FPKKLAFAYLEDLHSEFDEQHGKK [SEC22B]	–	–	2.89 ± 0.28	3.26 ± 0.38
SGRFAGREWYYGNVTRHQAECALN [NCK2]	–	–	2.31 ± 0.16	2.47 ± 0.22
FRFTYYTILDIFRFALRFIRPDPR [FAF2]	–	–	2.56 ± 0.067	2.47 ± 0.33
PQLVSSAREGSSEPWLPLTDGRSP [PLEKHN1]	–	–	4.83 ± 0.25	4.58 ± 0.085
ELFKELSINVMKQLIGSSNLFVMQ [GMCL1]	–	–	–	3.95 ± 0.43
MLERRYTPYPNLYPDQSPSEDWTM [CLCN6]	–	–	3 ± 0.3	3.16 ± 0.23
EEVPEAYVDIHTGLSGSGVAFVCA [PYCR3]	–	–	2.76 ± 0.53	2.66 ± 0.43
YANLALSGLIEIQSYPLCIYLINQ [SLC22A15]	–	–	3.9 ± 0.46	3.34 ± 0.19
PVMNGGVQTWTQPRLCYLVKEGGS [PDZK1]	–	–	2.75 ± 0.23	3.09 ± 0.27
IVYATEKKQTKVEFPEARIFEETL [KCTD13]	–	–	3 ± 0.11	2.85 ± 0.35
HAGQGGLFYSAEVEMLCDQAWGSM [CCDC3]	–	–	2.53 ± 0.77	2.47 ± 0.39
LKKSRGKFIKPWESPDEMELDELL [PTPRD]	–	–	3.52 ± 0.35	3.15 ± 0.44
MLEASEWATIEGLVELLQPFKQVA [ZBED1]	–	–	2.23 ± 0.76	2.27 ± 0.23
MGIVNLNIHMNFTHICRSHNSINQ [SLC2A12]	–	–	2.73 ± 0.52	2.9 ± 0.46

Sequence	protein stability index [1]	protein stability index [2]	protein stability index [3]	protein stability index [4]
AKEEGGEEVAKAVLEQEETAAASR [EPB41L3]	–	–	5.47 ± 0.37	5.79 ± 0.095
ETAIADAEQRGDNALKDARAKLDE [KRT71]	–	–	5.57 ± 0.21	5.41 ± 0.54
GSLHAGGARLVAACSAWLCPGLRL [AUH]	–	–	–	2.43 ± 0.7
NEVRRGSPVLLGWVEQAYADKCVC [TIAF1]	–	–	2.64 ± 0.087	2.88 ± 0.27
PFKFHMLHSGLVHGLAFWFDVAFI [CARM1]	–	–	2.75 ± 0.15	2.97 ± 0.2
DRIATTDDTTAMASASSSATGSFS [MAGEA10]	–	–	5.2 ± 0.11	5.28 ± 0.09
AVYLMTFLIVTVAWAAHTRLFQVV [TMEM175]	–	–	3.17 ± 0.097	3.18 ± 0.2
QTRRASALIDRPAPYFERSSSKRY [EPB41L3]	–	–	4.18 ± 0.24	4.17 ± 0.3
VSSNNRLVVTGSGEHASVYQITY [TLE6]	2.7 ± 0.26	2.68 ± 0.23	–	–
KSIYYITGESKEQVANSAFVERVR [HSP90AB1]	–	–	3.11 ± 0.32	–
GEYVVTAKAEGFTASTKNCMVGYD [CPXM2]	–	–	4.26 ± 0.28	3.65 ± 0.054
SNFPRQYFALRKILKQLIADVTLD [TRIM39]	–	–	2.54 ± 0.58	2.19 ± 0.53
PLLCPGCQGQPQGKAVVSHSKGHK [ELOA2]	–	–	4.12 ± 0.43	4.53 ± 0.42
PGNGTHGLSPEEKEQLSNDRETQE [ELOA2]	–	–	5.73 ± 0.074	5.75 ± 0.16
APDPELAAEMYQRGRAVLREAGFH [RSAD1]	–	–	3.92 ± 0.32	4.07 ± 0.22
LEALHLEALCEEDLLLWIQKHTEV [DENND6A]	–	–	2.68 ± 0.17	2.84 ± 0.67
NKQKCVERNEVRNVFKELQIMQGL [STK32A]	–	–	2.94 ± 0.4	2.93 ± 0.24
AFDKKVLKFDAYFQEDVPMSTEEQ [EFHC1]	–	–	4.71 ± 0.17	4.73 ± 0.18
YIFRVANHQKDLFRRTDGRCLIWG [DHCR7]	–	–	2.77 ± 0.23	2.35 ± 0.41
DSEEELAAFCPQLDDSTVARELAI [RETREG3]	–	–	5.12 ± 0.28	5.24 ± 0.19
RGIIMTFGSGSNGCLGHGSLTDIS [NEK8]	–	–	2.45 ± 0.22	2.4 ± 0.31
